Article PMC10397247
Like-named read-outs stand apart in the source and are kept apart here.

T1: 4H2253-AA
T1 chain: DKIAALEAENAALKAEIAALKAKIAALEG

T2: 4H2274-AA
T2 chain: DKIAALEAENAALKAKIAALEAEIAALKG

T3: 4H2330-AA
T3 chain: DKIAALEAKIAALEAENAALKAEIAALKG

T4: 4H2389-AA
T4 chain: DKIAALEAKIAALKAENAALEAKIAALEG

T5: 4H2438-AA
T5 chain: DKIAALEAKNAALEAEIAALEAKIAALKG

T6: 4H2473-AA
T6 chain: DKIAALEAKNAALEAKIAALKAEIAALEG

T7: 4H2611-AA
T7 chain: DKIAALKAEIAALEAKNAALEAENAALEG

T8: 4H2649-AA
T8 chain: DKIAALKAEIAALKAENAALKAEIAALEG

T9: 4H2698-AA
T9 chain: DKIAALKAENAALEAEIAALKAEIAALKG

T10: 4H2725-AA
T10 chain: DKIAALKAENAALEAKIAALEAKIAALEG

T11: 4H2865-AA
T11 chain: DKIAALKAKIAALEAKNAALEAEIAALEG

T12: 4H3009-AA
T12 chain: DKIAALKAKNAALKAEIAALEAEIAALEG

T13: 4H3016-AA
T13 chain: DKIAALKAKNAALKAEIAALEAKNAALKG

T14: 4H310-AA
T14 chain: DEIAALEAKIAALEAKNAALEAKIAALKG

T15: 4H3120-AA
T15 chain: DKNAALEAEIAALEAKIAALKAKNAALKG

T16: 4H3165-AA
T16 chain: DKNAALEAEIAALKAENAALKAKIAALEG

T17: 4H3395-AA
T17 chain: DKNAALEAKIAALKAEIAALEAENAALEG

T18: 4H3410-AA
T18 chain: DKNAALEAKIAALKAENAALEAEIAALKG

T19: 4H3590-AA
T19 chain: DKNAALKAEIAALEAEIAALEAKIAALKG

T20: 4H3606-AA
T20 chain: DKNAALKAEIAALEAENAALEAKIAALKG

T21: 4H3631-AA
T21 chain: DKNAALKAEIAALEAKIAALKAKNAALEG

T22: 4H3697-AA
T22 chain: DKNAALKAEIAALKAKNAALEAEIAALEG

T23: 4H3753-AA
T23 chain: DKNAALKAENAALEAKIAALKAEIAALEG

T24: 4H384-AA
T24 chain: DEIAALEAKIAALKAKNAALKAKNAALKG

T25: 4H3865-AA
T25 chain: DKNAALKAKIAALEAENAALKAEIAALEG

T26: 4H458-AA
T26 chain: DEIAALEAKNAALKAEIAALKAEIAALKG

T27: 4H485-AA
T27 chain: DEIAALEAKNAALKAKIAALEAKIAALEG

T28: 4H536-AA
T28 chain: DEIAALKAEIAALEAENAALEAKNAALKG

T29: 4H570-AA
T29 chain: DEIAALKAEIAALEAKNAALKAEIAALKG

T30: 4H629-AA
T30 chain: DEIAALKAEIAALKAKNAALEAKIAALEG

T31: 4H697-AA
T31 chain: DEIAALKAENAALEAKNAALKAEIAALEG

T32: 4H710-AA
T32 chain: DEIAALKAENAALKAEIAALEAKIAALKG

T33: 4H797-AA
T33 chain: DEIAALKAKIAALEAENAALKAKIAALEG

T34: 4H850-AA
T34 chain: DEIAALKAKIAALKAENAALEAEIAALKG

T35: 4H891-AA
T35 chain: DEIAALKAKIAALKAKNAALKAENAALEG

T36: 4H909-AA
T36 chain: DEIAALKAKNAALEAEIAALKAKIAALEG

T37: 4H94-AA
T37 chain: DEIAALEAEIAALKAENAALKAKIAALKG

T38: 4H249-AA
T38 chain: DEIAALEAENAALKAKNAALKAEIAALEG

T39: 4H2774-AA
T39 chain: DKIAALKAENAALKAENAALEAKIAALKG

T40: 4H_APH
T40 chain: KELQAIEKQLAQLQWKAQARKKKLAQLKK

T41: 4H_BCR
T41 chain: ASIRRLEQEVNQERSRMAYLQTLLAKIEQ


Key:
Test in all cases: two-hybrid library CCmax;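 note: natural log of median RNA to DNA barcode read ratio; higher means stronger binding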
[1] = molecular target: T1, 4H2253-AA
[2] = molecular target: T2, 4H2274-AA
[3] = molecular target: T3, 4H2330-AA; conditions: mean of both orientations
[4] = molecular target: T4, 4H2389-AA; conditions: mean of both orientations
[5] = molecular target: T5, 4H2438-AA; conditions: mean of both orientations
[6] = molecular target: T6, 4H2473-AA; conditions: mean of both orientations
[7] = molecular target: T7, 4H2611-AA; conditions: mean of both orientations
[8] = molecular target: T8, 4H2649-AA; conditions: mean of both orientations
[9] = molecular target: T9, 4H2698-AA; conditions: mean of both orientations
[10] = molecular target: T10, 4H2725-AA; conditions: mean of both orientations
[11] = molecular target: T11, 4H2865-AA; conditions: mean of both orientations
[12] = molecular target: T12, 4H3009-AA; conditions: mean of both orientations
[13] = molecular target: T13, 4H3016-AA; conditions: mean of both orientations
[14] = molecular target: T14, 4H310-AA
[15] = molecular target: T15, 4H3120-AA; conditions: mean of both orientations
[16] = molecular target: T16, 4H3165-AA; conditions: mean of both orientations
[17] = molecular target: T17, 4H3395-AA; conditions: mean of both orientations
[18] = molecular target: T18, 4H3410-AA; conditions: mean of both orientations
[19] = molecular target: T19, 4H3590-AA
[20] = molecular target: T20, 4H3606-AA; conditions: mean of both orientations
[21] = molecular target: T21, 4H3631-AA
[22] = molecular target: T22, 4H3697-AA; conditions: mean of both orientations
[23] = molecular target: T23, 4H3753-AA; conditions: mean of both orientations
[24] = molecular target: T24, 4H384-AA; conditions: mean of both orientations
[25] = molecular target: T25, 4H3865-AA; conditions: mean of both orientations
[26] = molecular target: T26, 4H458-AA; conditions: mean of both orientations
[27] = molecular target: T27, 4H485-AA; conditions: mean of both orientations
[28] = molecular target: T28, 4H536-AA; conditions: mean of both orientations
[29] = molecular target: T29, 4H570-AA; conditions: mean of both orientations
[30] = molecular target: T30, 4H629-AA; conditions: mean of both orientations
[31] = molecular target: T31, 4H697-AA; conditions: mean of both orientations
[32] = molecular target: T32, 4H710-AA; conditions: mean of both orientations
[33] = molecular target: T33, 4H797-AA; conditions: mean of both orientations
[34] = molecular target: T34, 4H850-AA; conditions: mean of both orientations
[35] = molecular target: T35, 4H891-AA; conditions: mean of both orientations
[36] = molecular target: T36, 4H909-AA; conditions: mean of both orientations
[37] = molecular target: T37, 4H94-AA; conditions: mean of both orientations
[38] = molecular target: T38, 4H249-AA; conditions: mean of both orientations
[39] = molecular target: T39, 4H2774-AA; conditions: mean of both orientations
[40] = molecular target: T40, 4H_APH
[41] = molecular target: T41, 4H_BCR; conditions: mean of both orientations
[42] = molecular target: GCN2_T; conditions: mean of both orientations

Binder | interaction score [3] | interaction score [4] | interaction score [5] | interaction score [6] | interaction score [8] | interaction score [9] | interaction score [10] | interaction score [11] | interaction score [12] | interaction score [13] | interaction score [15] | interaction score [16] | interaction score [17] | interaction score [18] | interaction score [22] | interaction score [23] | interaction score [25] | interaction score [26] | interaction score [27] | interaction score [28] | further results
DENAALEAEIAALKAKNAALEAKIAALKG [4H1142-AA] | -1.84 | -0.327 | -0.434 | -2.06 | 0.913 | -1.05 | -1.15 | 1.33 | -0.415 | 0.156 | -1.55 | -0.754 | -1.76 | 0.438 | 2.08 | -2.1 | 0.444 | -1.34 | -0.612 | -1.1 | interaction score ([1]; mean of both orientations): -1.49; interaction score [2]: -1.11; interaction score [7]: -0.194; interaction score [14]: -1.4; interaction score ([19]; mean of both orientations): 0.23; interaction score [20]: 1.65; interaction score [21]: -1.43; interaction score [24]: -1.72; interaction score [29]: -0.319; interaction score [30]: 0.124; interaction score [31]: -1.71; interaction score [32]: -1.52; interaction score [33]: -1.29; interaction score [34]: 0.681; interaction score [35]: -1.23; interaction score [36]: -1.05; interaction score [37]: -1.72
DKIAALEAENAALKAEIAALKAKIAALEG [4H2253-AA] | -1.14 | -1.29 | -0.259 | -1.02 | -1.27 | 0.72 | -0.468 | -1.42 | 0.841 | -0.709 | -1.77 | -1.44 | -1.22 | -0.76 | -1.65 | -1.13 | -1.13 | 0.0604 | -0.48 | -1.37 | interaction score [1]: 2.28; interaction score ([2]; mean of both orientations): -0.65; interaction score [38]: -1.56; interaction score [39]: -0.645; interaction score [14]: -0.688; interaction score [19]: -1.09; interaction score [29]: -1.41; interaction score [30]: -1.74; interaction score [32]: 0.741; interaction score [33]: -1.07; interaction score [34]: -0.973; interaction score [35]: -1.7; interaction score [36]: -0.788; interaction score [37]: -1.54; interaction score [40]: -1.1; interaction score [41]: -1.47; interaction score [42]: -1.56
DENAALEAKIAALEAENAALKAKIAALKG [4H1310-AA] | 1.35 | 1.17 | -0.264 | -1.02 | 1.94 | -0.391 | -1.12 | 1.76 | 0.0502 | 0.425 | -1.24 | 0.0119 | -0.984 | 1.9 | 0.439 | -1.37 | 2.2 | -1.3 | -1.08 | -1.27 | interaction score ([1]; mean of both orientations): -0.556; interaction score ([2]; mean of both orientations): -1.15; interaction score [7]: -1.46; interaction score ([14]; mean of both orientations): -0.748; interaction score ([19]; mean of both orientations): -0.24; interaction score [20]: 2.23; interaction score ([21]; mean of both orientations): -1.57; interaction score [24]: -1.55; interaction score [29]: 0.408; interaction score [30]: -1.49; interaction score [31]: -1.05; interaction score [32]: -0.684; interaction score [33]: 1.92; interaction score [34]: 1.87; interaction score [35]: -1.69; interaction score [36]: -1.21; interaction score [37]: -0.926
DENAALKAEIAALKAENAALKAEIAALKG [4H1626-AA] | -1.37 | -1.4 | -1.65 | -1.45 | 0.931 | -1.09 | -1.77 | -1.68 | -1.64 | -1.84 | -1.91 | -0.447 | -1.69 | -0.738 | -1.21 | -1.54 | -0.626 | -1.65 | -1.46 | -1.73 | interaction score ([1]; mean of both orientations): -1.52; interaction score ([2]; mean of both orientations): -1.5; interaction score [38]: -1.39; interaction score [7]: -1.57; interaction score [39]: -1.46; interaction score ([14]; mean of both orientations): -1.28; interaction score ([19]; mean of both orientations): -1.51; interaction score [29]: 0.298; interaction score [30]: -1.63; interaction score [32]: -1.04; interaction score [33]: -1.41; interaction score [34]: 1.29; interaction score [35]: -1.64; interaction score [36]: -1.36; interaction score [37]: 1.29
